Columns and labels:
[1] = target: Amyloid beta (Abeta42; beta-Amyloid (1-42)) (UniProt P05067 672-713); test: cell-based or functional assay
[2] = target: T1, ApoEr2 (TP320903, OnGene) (UniProt Q14114 33-963, limits assumed); test: ELISA on coated receptor
T1 sequence (looked up): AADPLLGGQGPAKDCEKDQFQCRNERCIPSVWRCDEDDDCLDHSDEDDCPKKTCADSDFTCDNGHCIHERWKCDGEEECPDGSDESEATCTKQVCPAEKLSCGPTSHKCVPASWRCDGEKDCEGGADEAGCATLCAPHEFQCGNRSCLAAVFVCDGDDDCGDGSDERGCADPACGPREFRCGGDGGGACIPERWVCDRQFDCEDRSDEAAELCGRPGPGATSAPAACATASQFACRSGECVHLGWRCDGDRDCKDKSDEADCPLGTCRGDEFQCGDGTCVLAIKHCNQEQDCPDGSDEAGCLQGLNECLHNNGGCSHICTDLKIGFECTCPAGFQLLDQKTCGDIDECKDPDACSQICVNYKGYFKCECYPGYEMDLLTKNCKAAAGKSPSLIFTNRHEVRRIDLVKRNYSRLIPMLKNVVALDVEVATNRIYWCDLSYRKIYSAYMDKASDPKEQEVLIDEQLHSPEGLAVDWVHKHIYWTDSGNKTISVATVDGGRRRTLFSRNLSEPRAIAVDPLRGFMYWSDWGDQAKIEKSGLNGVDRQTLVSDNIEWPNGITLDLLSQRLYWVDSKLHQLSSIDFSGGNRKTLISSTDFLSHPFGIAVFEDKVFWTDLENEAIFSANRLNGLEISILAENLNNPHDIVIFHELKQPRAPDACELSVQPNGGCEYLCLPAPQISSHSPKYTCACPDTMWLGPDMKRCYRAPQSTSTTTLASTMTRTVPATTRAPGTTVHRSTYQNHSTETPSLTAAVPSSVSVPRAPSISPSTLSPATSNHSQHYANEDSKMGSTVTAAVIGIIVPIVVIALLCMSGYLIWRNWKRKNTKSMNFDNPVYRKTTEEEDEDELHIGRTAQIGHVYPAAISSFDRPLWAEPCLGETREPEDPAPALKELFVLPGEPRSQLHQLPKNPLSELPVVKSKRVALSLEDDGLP
Method: (§1) Enzyme-linked immunosorbent assay (ELISA) was used to quantify changes in binding of RELN variants (media-derived full-length or CTR-RELN) to either VLDLr or ApoEr2 following an optimized version of a previously published protocol (6). Briefly, ELISA strips (DY008, R&D Systems) were coated with one ng/μL (100 μL/well) of VLDLr (8444-VL, R&D) or ApoEr2 (TP320903, OnGene) receptors diluted in 25 mM Tris HCl, 140 mM NaCl, […], two mM CaCl₂), pH 7.4 (TBS-C buffer). After 18 h at four ° C. incubation, plates were blocked one h with three % BSA (22070008-6, Bioworld), 0.05% Tween-20 (Sigma Aldrich) TBS-C buffer. We assessed binding via incubation with 100 μL/well of serial dilutions of recombinant RELN protein (Ser1221-Gln2666, 8546-MR-050, R&D) or RELN variants in TBS-C buffer for one hour at room temperature. For detection, we used goat anti-mouse RELN primary antibody (LS-C793521-100, LS-Bio, 1:2,000, 100 μL/well) as primary antibody for one h at R.T. and (1:10,000; 100 μL/well, donkey anti-goat IgG H&L, HRP, ab6885, Abcam) as secondary antibody for 30 min. at R.T. Between each of the previous steps, plates were washed four times with TBS-C buffer (200 μL/well). Plates were washed three times prior to initiating the colorimetric reaction (DY008, R&D Systems). Stop solution (50 μL/well, DY008, R&D Systems) was added upon five min. incubation and the absorbance of the samples was measured at 450 nm using the Synergy 2 microplate reader (BioTek Instruments). Processing and analysis of the data was done using Gen5 1.11 software and GraphPad Prism, respectively.

[3] = target: VLDLr (8444-VL, R&D) (UniProt P98155 28-797, limits assumed); test: ELISA on coated receptor
Method: as §1

[4] = target: T2, Neuropilin 1 (NRP1), R&D 3870-N1-025 (UniProt O14786-2 22-644, biotinylated at a 1:2 molar ratio); test: BLI, NRP1 on biosensor
T2 construct: Biotinylated and immobilised on streptavidin biosensor tips; also called Neurophilin 1
T2 sequence (looked up): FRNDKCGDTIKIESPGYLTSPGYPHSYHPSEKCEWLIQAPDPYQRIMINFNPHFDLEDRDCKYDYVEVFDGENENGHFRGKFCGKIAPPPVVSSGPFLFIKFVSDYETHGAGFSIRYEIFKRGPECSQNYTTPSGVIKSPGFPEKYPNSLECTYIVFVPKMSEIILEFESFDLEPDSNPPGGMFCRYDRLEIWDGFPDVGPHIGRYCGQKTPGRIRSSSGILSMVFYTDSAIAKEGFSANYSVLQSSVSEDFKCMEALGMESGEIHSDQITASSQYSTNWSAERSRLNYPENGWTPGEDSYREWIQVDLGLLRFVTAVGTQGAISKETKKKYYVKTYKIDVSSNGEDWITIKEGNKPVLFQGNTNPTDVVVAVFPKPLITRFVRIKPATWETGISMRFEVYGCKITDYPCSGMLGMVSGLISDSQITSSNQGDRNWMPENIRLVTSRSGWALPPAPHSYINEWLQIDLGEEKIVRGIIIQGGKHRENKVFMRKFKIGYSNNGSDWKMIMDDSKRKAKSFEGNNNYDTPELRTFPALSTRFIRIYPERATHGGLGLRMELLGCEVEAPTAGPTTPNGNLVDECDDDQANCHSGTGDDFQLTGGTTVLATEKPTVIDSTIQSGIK
Method: (§2) Bio-layer interferometry (BLI) was used to assess NRP1-protein kinetics at 30° C. and 1000 rpm agitation using previously published methods. 1 mg/mL NRP1 (R&D 3870-N1-025) was biotinylated at a 1:2 molar ratio, desalted, and immobilized on the SA biosensor tip (Pall ForteBio) surface. This was followed by 1) 180 seconds baseline buffer diluent, 2) loading of the ligand (NRP1), 3) 180 seconds baseline buffer diluent, 4) 240 seconds association (analyte), and 5) 300 seconds disassociation in assay buffer. Assay buffer: SD Buffer (pH7.4 PBS, 0.05% tween20, 0.01% BSA).
(§3) The experimental data were fit with the 1:1 binding model and analyzed with global fitting using Octet Data Analysis software to calculate KD.

[5] = target: T2, Neuropilin 1 (NRP1), R&D 3870-N1-025; test: BLI (Octet), biotinylated NRP1 on SA biosensor, 1:1 global fit
Method: as §2, §3

Amyloid beta (Abeta42; beta-Amyloid (1-42)), sequence (P05067 672-713 limits assumed): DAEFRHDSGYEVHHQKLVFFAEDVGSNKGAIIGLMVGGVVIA

Binder | binding result [2] | binding result [3] | Kd [5] [nM] | koff [5] [s⁻¹] | kon [5] [M⁻¹ s⁻¹] | also measured
RKQNYMMNFSRQHGLRDFYNRRRR [Reelin CTR peptide H3447D short] |  |  |  |  |  | Thioflavin T fluorescence assay of Abeta aggregation, fold aggregation against H3447K short [1]: ~3 fold
RKQNYMMNFSRQHGLRHFYNRRRRSLRRYP (also called WT long; C-terminal RELN WT uncleaved) [C-terminal region of RELN (CTR-RELN) WT recombinant peptide, long] | no binding | no binding |  |  |  | 
RKQNYMMNFSRQHGLRRFYNRRRRSLRRYP (also called H3447R long; C-terminal RELN H3447R uncleaved) [C-terminal region of RELN (CTR-RELN) H3447R recombinant peptide, long] | no binding | no binding |  |  |  | 
Fc-fusion CTR-RELN WT (184I pfcn-huIgG2-C-termH3447WT) (Fc fusion, also called Fc-WT) APLERKSSVECPPCPAPPVAGPSVFLFPPKPKDTLMISRTPEVTCVVVDVSHEDPEVQFNWYVDGVEVHNAKTKPREEQFNSTFRVVSVLTVVHQDWLNGKEYKCKVSNKGLPAPIEKTISKTKGQPREPQVYTLPPSREEMTKNQVSLTCLVKGFYPSDIAVEWESNGQPENNYKTTPPMLDSDGSFFLYSKLTVDKSRWQQGNVFSCSVMHEALHNHYTQKSLSLSPGARTSTRKQNYMMNFSRQHGLRHFYNRRRR |  |  | 610 | 0.00573 | 9400 | fold less affinity than VEGF [4]: 100 fold
Fc-fusion CTR-RELN H3447R (184J pfcn-huIgG2-C-termH3447R) (Fc fusion, also called Fc-H3447R) APLERKSSVECPPCPAPPVAGPSVFLFPPKPKDTLMISRTPEVTCVVVDVSHEDPEVQFNWYVDGVEVHNAKTKPREEQFNSTFRVVSVLTVVHQDWLNGKEYKCKVSNKGLPAPIEKTISKTKGQPREPQVYTLPPSREEMTKNQVSLTCLVKGFYPSDIAVEWESNGQPENNYKTTPPMLDSDGSFFLYSKLTVDKSRWQQGNVFSCSVMHEALHNHYTQKSLSLSPGARTSTRKQNYMMNFSRQHGLRRFYNRRRR |  |  | 79.3 | 0.00102 | 12900 | fold affinity against wild-type CTR-RELN [4]: 10 fold

— patent publication US20260139017A1 (GENERAL HOSPITAL, published 2026)
